Results taken from patent US20170173125A1.
Blank lines part the entries; values can stand above or below the binder they belong to. Where no end group is shown, it is not given here.

How the values were obtained:
[1] = target: TCRs of CD8+CD40Ig Tregs (CD8+CD45RClow Tregs from CD40Ig-treated long-term allograft bearing LEW.1A recipients); test: cell-based or functional assay
[2] = target: TCRs of CD8+CD40Ig Tregs (CD8+CD45RClow Tregs from CD40Ig-treated long-term allograft bearing LEW.1A recipients); test: BV421 control tetramer staining, flow cytometry, 10 µg/mL
[3] = target: TCRs of CD8+CD40Ig Tregs (CD8+CD45RClow Tregs from CD40Ig-treated long-term allograft bearing LEW.1A recipients); test: PE and APC tetramer double staining, flow cytometry, 10 µg/mL, 1 hour at 4° C.
[4] = target: TCRs of naive splenic CD8+CD45RClow Tregs; test: as above

CD25 expression at the cell surface of CD8+CD40Ig Tregs after 6 days with matured syngeneic pDCs, fold vs. no peptide [1]: 1.67 fold
Binder: YLRYDSDVGEYRAVTE [peptide Bu31]

percent non-specific staining among Bu31-10-specific cells [2]: 1.6%
Binder: ILFPSSERLISNR (peptide-MHC, part only; not given: MHC heavy chain and b2m, part only, also: bound in MHC class I RT1.A^a tetramer with streptavidin-BV421) [control tetramer RT1.A^a/MTF-E]

percent of Bu31-specific (tetramer-stained) cells among CD8+CD40Ig Tregs, graft [3]: 1.11% | percent of Bu31-specific (tetramer-stained) cells among CD8+CD40Ig Tregs, spleen [3]: 0.281% | precursor frequency (tetramer-stained cells) in naive splenic CD8+CD45RClow Tregs [4]: 0.187%
Binder: YLRYDSDVGEYR (peptide-MHC, part only; not given: MHC heavy chain and b2m, part only, also: bound in MHC class I RT1.A^a tetramer with streptavidin-PE or -APC) [MHC class I tetramer RT1.A^a/Bu31-10]
